From patent WO2024096022A1 (dated 2024)

T1: human AdipoR1 protein (human, UniProt Q96A54 1-375)
T1 construct: Stably expressed on CHO cells together with EGFP as a separate expression marker; also called adiponectin receptor 1; hAdipoR1
T1 sequence: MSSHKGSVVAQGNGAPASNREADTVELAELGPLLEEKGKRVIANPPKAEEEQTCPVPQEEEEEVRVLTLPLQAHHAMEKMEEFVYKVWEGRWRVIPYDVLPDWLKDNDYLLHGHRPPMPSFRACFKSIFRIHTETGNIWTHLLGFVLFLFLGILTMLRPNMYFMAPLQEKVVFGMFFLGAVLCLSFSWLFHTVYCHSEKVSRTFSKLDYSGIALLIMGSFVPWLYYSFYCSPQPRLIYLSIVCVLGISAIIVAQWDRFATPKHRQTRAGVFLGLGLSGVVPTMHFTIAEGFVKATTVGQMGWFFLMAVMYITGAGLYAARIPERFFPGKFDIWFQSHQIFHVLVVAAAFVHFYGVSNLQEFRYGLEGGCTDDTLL

T2: human AdipoR2 protein (human, UniProt Q86V24 1-386)
T2 construct: Stably expressed on CHO cells together with EGFP as a separate expression marker; also called adiponectin receptor 2; hAdipoR2
T2 sequence: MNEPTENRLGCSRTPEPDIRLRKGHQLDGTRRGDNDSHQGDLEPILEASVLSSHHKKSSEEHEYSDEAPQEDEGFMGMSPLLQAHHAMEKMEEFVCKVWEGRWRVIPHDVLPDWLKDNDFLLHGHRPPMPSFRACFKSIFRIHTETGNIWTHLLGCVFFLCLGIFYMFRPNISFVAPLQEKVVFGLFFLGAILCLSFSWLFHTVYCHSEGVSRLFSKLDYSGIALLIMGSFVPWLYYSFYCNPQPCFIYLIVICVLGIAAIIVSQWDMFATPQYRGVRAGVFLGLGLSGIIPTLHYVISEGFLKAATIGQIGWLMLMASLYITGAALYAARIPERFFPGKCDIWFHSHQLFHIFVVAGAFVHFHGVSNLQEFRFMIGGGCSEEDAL


Key:
[1] = target: T1, human AdipoR1 protein; test: flow cytometry on human AdipoR1-expressing CHO cells against parental CHO cells
[2] = target: T2, human AdipoR2 protein; test: flow cytometry on human AdipoR2-expressing CHO cells against parental CHO cells
[3] = target: T2, human AdipoR2 protein; test: fluorescent ligand binding to cells stably expressing human AdipoR2 (8200 Cellular Detection System)

| binding result [1] | binding result [2] | binding result [3] | Binder |
| --- | --- | --- | --- |
| binds | binds | – | mouse-human chimeric antibody WT (antibody, V domains shown) VH: DVKLVESGEGLVKPGGSLKLSCAASGFTFSSYAMSWVRQTPEKRLEWVAYISSGGDYIYYADTVKGRFTISRDNARNTLYLQMSSLKSEDTAMYYCTRALEAMDYWGQGTSVTVSS VL: ETTVTQSPASLSMAIGEKVTIRCITSTDIDDDMNWYQQKPGEPPKLLISEGNTLRPGVPSRFSSSGYGTDFVFTIENMLSEDVADYYCLQSDNLPFTFGSGTKLEIK |
| – | – | binds | fluorescently labeled human plasma-derived adiponectin (ligand, UniProt Q15848 19-244, looked up, fluorescent label (site not stated)) ETTTQGPGVLLPLPKGACTGWMAGIPGHPGHNGAPGRDGRDGTPGEKGEKGDPGLIGPKGDIGETGVPGAEGPRGFPGIQGRKGEPGEGAYVYRSAFSVGLETYVTIPNMPIRFTKIFYNQQNHYDGSTGKFHCNIPGLYYFAYHITVYMKDVKVSLFKKDKAMLFTYDQYQENNVDQASGSVLLHLEVGDQVWLQVYGEGERNGLYADNDNDSTFTGFLLYHDTN |
